Laboratory results taken from article PMC4010494.

Molecular target: chicken lysozyme (chicken) (UniProt P00698)
Assay: far-Western, overlay or dot blot; proteins resolved by SDS-PAGE and transferred to PVDF; biotinylated CaM 1:2400, 30 min at room temperature in TBS-T with 1 mM CaCl2; VectaStain, chemi-luminescence

- fold lower CaM binding signal than for CaMKII: 500 fold
Substance: biotinylated calmodulin (CaM) (from UniProt P0DP23 1-149) (natural protein; other documents disagree on this pair)
